From the supplement of paper PMC9170038 come the findings set out here.

In the data set the test system is MS2 coat protein. Put plainly: apparent KD of MS2 coat protein; designed switch direction (-1 OFF switch, 1 ON switch): 1; higher = weaker reporter binding. The gist of the method: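 Each step of the titration lasted 0.8–1.5 h at the lowest concentration and 10–20 min at the highest. The protein, SNAP-549-labelled MS2 coat protein, went from 0.7 or 1.5 nM doubling to 3 µM over RNA switches transcribed on Illumina chips by stalled E. coli RNA polymerase. Normalised cluster fluorescence was curve-fitted, and the per-design median over clusters is given as apparent KD.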

Setting [1] is: input ligand: microRNA oligo, concentration not stated.
Setting [2] is: Eterna round: R95, input ligand: FMN 200 uM.
[3] abbreviates: Eterna round: R95, input ligand: microRNA oligo, concentration not stated.
[4] abbreviates: Eterna round: R95, input ligand: none.

“ACAUGAAAUUCAGGAUAUUUUGUACCUACAUGUGACAUGAGGAUCACCCAUGUGGUAAGUAUAAGAGAGAAGGGAAAGAUAUGU [Equivalence 5 - Jieux - Same State NG 2] (Eterna round: R96, puzzle: Same State NG 2)”: the “apparent KD of MS2 coat protein” value is, setting by setting: (input ligand: FMN 200 uM) 29.1 nM; under setting [1], 29.9 nM; (input ligand: none) 38.5 nM.

Regarding “ACAUGAGAGAUAGGAUAUCUUGUACCUACAUGUGACAUGAGGAUCACCCAUGUGGUAAGUAUGAGGGAGAAGGAUCAGAUAUGU [Equivalence 42 - Jieux - Same State NG 2] (Eterna round: R96, puzzle: Same State NG 2)”, the “apparent KD of MS2 coat protein” value (input ligand: FMN 200 uM) was 29.6 nM, the “apparent KD of MS2 coat protein” value under setting [1] turned out to be 26.4 nM and the “apparent KD of MS2 coat protein” value (input ligand: none) turned out to be 45.2 nM.

Take “ACAUGAGAGUGAGGAUAUAUUGUACCUACAUGUGACAUGAGGAUCACCCAUGUGGUAAGUAUGACAUAGAAGGCACAGAUAUGU [Equivalance 80 - Jieux - Same State NG 2] (Eterna round: R96, puzzle: Same State NG 2)”: the “apparent KD of MS2 coat protein” value (input ligand: FMN 200 uM) amounted to 35.6 nM, the “apparent KD of MS2 coat protein” value under setting [1] worked out at 45.2 nM and the “apparent KD of MS2 coat protein” value (input ligand: none) was found to be 70.9 nM.

Regarding “ACAUGAGAGUGAGGAUAUCAUGUACCUACAUGUGACAUGAGGAUCACCCAUGUGGUAAGUAUGACUGAGAAGGCACAGAUAUGU [Equivalance 90 - Jieux - Same State NG 2] (Eterna round: R96, puzzle: Same State NG 2)”, the “apparent KD of MS2 coat protein” value reads like this: (input ligand: FMN 200 uM) 70.3 nM; under setting [1], 267 nM; (input ligand: none) 889 nM.

Turning to “ACAUGAGGGUGAGGAUAUUGGAACUCACCUGACAUGAGGAUCACCCAUGUUCAAUGAGGAUCACCCAAGAAGGCACGUUGUGGA [Same State NG2 S3] (Eterna round: R96, puzzle: Same State NG 2)”, the “apparent KD of MS2 coat protein” value (input ligand: FMN 200 uM) stood at 29.2 nM, the “apparent KD of MS2 coat protein” value under setting [1] stood at 24 nM and the “apparent KD of MS2 coat protein” value (input ligand: none) was found to be 36.2 nM.

“ACCCAAAAUACAUGGGAACAAGCUUUUUAACAUGAGGAUCACCCAUGUACUCGUCUUAUAAGCAGUCGAAAGACUGC [hsa-mir-208a sensor: 113] (Eterna round: R96, puzzle: Sensor for hsa-mir-208a)”: the “apparent KD of MS2 coat protein” value was 563 nM (input ligand: FMN 200 uM), 14.6 nM under setting [1] and 518 nM (input ligand: none).

Regarding “ACCCGCGGGCCACAUGAGGAUCACCCAUGUGACCGGUGAUCCAAGGAUAUACGUGUCAUUGACGCGUAGAAGGUGGCCAAAACA [Ersooned] (Eterna round: R96, puzzle: Same State NG 3)”, the “apparent KD of MS2 coat protein” value runs as follows: (input ligand: FMN 200 uM) 49.2 nM; under setting [1], 22.7 nM; (input ligand: none) 28.8 nM.

As to “ACGCGGGUAUCACAGGAUAUACUCAUAACUACAUGAGGAUCACCCAUGUGGCGGAAUUCCGGUGCGUAGAAGGGUGAUGGACCGC [Artece] (puzzle: Same State 2)”, the “apparent KD of MS2 coat protein” value under setting [2] came to 19.3 nM, the “apparent KD of MS2 coat protein” value under setting [3] is 28.5 nM and the “apparent KD of MS2 coat protein” value under setting [4] came to 26.9 nM.

Regarding “ACGUCGAGAUCACAGGAUAUACUCACAUCUACAUGAGGAUCACCCAUGUAGCGGUAUUCCGGUGCGUAGAAGGGUGAUCGACGAC [Same State 2 - Mod of Artece v.5] (puzzle: Same State 2)”, the “apparent KD of MS2 coat protein” value by setting is: under setting [2], 14.6 nM; under setting [3], 9.7 nM; under setting [4], 11.9 nM.

Take “ACGUGGCUGCCGCAGGAUAUACCCUGUUCCACAUGAGGAUCACCCAUGUUUACGAACUAUGAGAGGUAGAAGGGUGGAUGUCAUU [Beenvean] (Eterna round: R96, puzzle: Same State 2)”: the “apparent KD of MS2 coat protein” value by setting is: (input ligand: FMN 200 uM) 12.2 nM; under setting [1], 18.9 nM; (input ligand: none) 30.7 nM.

On to “ACGUGGCUGCCGCAGGAUAUACCCUGUUCCACAUGAGGAUCACCCAUGUUUACGAACUAUGAGAGGUAGAAGGGUGGAUGUCAUU [Beenvean] (puzzle: Same State 2)”, for which the “apparent KD of MS2 coat protein” value under setting [3] was found to be 23.7 nM.

Take “ACUAUUUAUGCAGGAUAUGAUUAACAUGAGGAUCACCCAUGUGGUGUUGUGAGUAAGGAGAGUGAUCAGAAGGGCAUUUUUUUU [JMF's solution 75] (Eterna round: R96, puzzle: Same State NG 2)”: the “apparent KD of MS2 coat protein” value stood at 518 nM (input ligand: FMN 200 uM), 297 nM under setting [1] and 359 nM (input ligand: none).

Take “ACUGCAAUUAACGCCUACAUGAGGAUCACCCAUGUAUGUAGGCAGGAUAUCGUUUGCUUUGCAAACGAGAAGGGCUGUAGUAGC [salish99_SSNG3_R04_003] (Eterna round: R96, puzzle: Same State NG 3)”: the “apparent KD of MS2 coat protein” value was 59.1 nM (input ligand: FMN 200 uM), 59.4 nM under setting [1] and 64.1 nM (input ligand: none).

Take “AGAGAACAUGAGGAUCACCCAUGUGGGAUGGGCAUAGGAUAUAGAGGAGAGAGGGAGGAACUAGAAGGAUGAUGGA [JR_SS1_Sub079] (puzzle: Same State 1)”: the “apparent KD of MS2 coat protein” value under setting [2] turned out to be 43 nM, the “apparent KD of MS2 coat protein” value under setting [3] is 103 nM and the “apparent KD of MS2 coat protein” value under setting [4] came to 50.3 nM.

Regarding “AGAUCAUGACGAGGAUAUGGAACAUGAGGAUCACCCAUGUAUGUUCCAUAACGCGAACGACGAAUCCAGAAGGCGUCGUGGUCA [JL SSNG2 1.09] (Eterna round: R96, puzzle: Same State NG 2)”, the “apparent KD of MS2 coat protein” value worked out at 7.15 nM (input ligand: FMN 200 uM), 18.6 nM under setting [1] and 28.3 nM (input ligand: none).

On to “AGAUGUUAAUUAGGAUAUGGUCACAUGAGGAUCACCCAUGUAACGAUGAUACGAUGUGGUCAAGACUAGAAGGGAUCGCUAACA [SameState NG2 #72] (Eterna round: R96, puzzle: Same State NG 2)”, for which the “apparent KD of MS2 coat protein” value runs as follows: (input ligand: FMN 200 uM) 204 nM; under setting [1], 86.4 nM; (input ligand: none) 155 nM.

Turning to “AGCCUGAGUCGAGGAUAUUAUGGAUCCUUUAAUACAUGAGGAUCACCCAUGUAAUUAAUUAUACAUGAGAAGGCGACUCAGGCA [SSNG2/11-A1] (Eterna round: R96, puzzle: Same State NG 2)”, the “apparent KD of MS2 coat protein” value reads like this: (input ligand: FMN 200 uM) 10.9 nM; under setting [1], 30.4 nM; (input ligand: none) 129 nM.

As to “AGCGCGGUCUCGCAGGAUAUCCACAUUCCUACAUGAGGAUCACCCAUGUCGCUGCAGGAUAUUAGGGAGAAGGGUGAUGCCGCGG [Quesed] (puzzle: Same State 2)”, the “apparent KD of MS2 coat protein” value was 22.7 nM under setting [2], 42.7 nM under setting [3] and 48.4 nM under setting [4].

In the case of “AGCUAUUAAUCAGGAUAUAGUGACAUGAGGAUCACCCAUGUAUUAAUGAUGAAAUGUGGUCGCCGCUAGAAGGGAUUACUAACA [SameState NG2 #44] (Eterna round: R96, puzzle: Same State NG 2)”, the “apparent KD of MS2 coat protein” value was 67.1 nM (input ligand: FMN 200 uM), 22 nM under setting [1] and 30.1 nM (input ligand: none).

Take “AGCUAUUAAUCAGGAUAUAGUGACAUGAGGAUCACCCAUGUAUUGAUGAUUAAAUGUGGUCACCGCUAGAAGGGAUUACUAACA [SameState NG2 #47] (Eterna round: R96, puzzle: Same State NG 2)”: the “apparent KD of MS2 coat protein” value runs as follows: (input ligand: FMN 200 uM) 25.6 nM; under setting [1], 23.3 nM; (input ligand: none) 30.1 nM.

For “AGCUAUUAAUCAGGAUAUGGUCACAUGAGGAUCACCCAUGUAUAGAUGAUUGAAUGUGGUCUACACUAGAAGGGAUUGCUAACA [SameState NG2 #58] (Eterna round: R96, puzzle: Same State NG 2)”, the “apparent KD of MS2 coat protein” value reads like this: (input ligand: FMN 200 uM) 167 nM; under setting [1], 96.1 nM; (input ligand: none) 150 nM.

As for “AGCUAUUAAUCAGGAUAUGGUCACAUGAGGAUCACCCAUGUGUAGAUGAUAAAAUGUGGUCAACACUAGAAGGGAUUGCUAACA [SameState NG2 #61] (Eterna round: R96, puzzle: Same State NG 2)”, the “apparent KD of MS2 coat protein” value runs as follows: (input ligand: FMN 200 uM) 26.8 nM; under setting [1], 25.1 nM; (input ligand: none) 37 nM.

With “AGCUAUUACGAAGGAUAUAGUAACAUGAGGAUCACCCAUGUUUACAUGAUUAAUUGUGAUCACGUCUAGAAGGUUGUACUAACA [SameState NG2 #34] (Eterna round: R96, puzzle: Same State NG 2)”, the “apparent KD of MS2 coat protein” value is 33.1 nM (input ligand: FMN 200 uM), 30.2 nM under setting [1] and 37.1 nM (input ligand: none).

With “AGGAAACAUGAGGAUCACCCAUGUAAGAUAUACACAGGAUAUGCGAAAAGAAACAAAGAAGCAGAAGGGUGGAAAA [75%, Ex sub1, 11] (Eterna round: R96, puzzle: Same State 1)”, the “apparent KD of MS2 coat protein” value is, setting by setting: (input ligand: FMN 200 uM) 16.6 nM; under setting [1], 22.7 nM; (input ligand: none) 43.5 nM.

Turning to “AGGAGUAUCUGACAUGAGGAUCACCCAUGUUCCAUUCUACGAUAGGAUAUCGAAAUACAAAGACGCGAGAAGGAUCAGAACCUA [Eternabot solution 48] (Eterna round: R96, puzzle: Same State NG 3)”, the “apparent KD of MS2 coat protein” value stood at 23.2 nM (input ligand: FMN 200 uM), 16.5 nM under setting [1] and 26.8 nM (input ligand: none).

Consider “AGGCAAGCUUUUUGCUGGUAUGAAGGAGAACAUGAGGAUCACCCAUGUAUUAGAGGUGUAGAGGAUUUGAGAAAGAA [JR_SHM208A_Sub003] (puzzle: Sensor for hsa-mir-208a)”, for which the “apparent KD of MS2 coat protein” value was 96.8 nM under setting [2], 91.8 nM under setting [3] and 134 nM under setting [4].

In the case of “AGGCCAUCGGGAGGAUAUGGCACCUUAUUGGUGCCAGAAGGUCCAACAUGAGGAUCACCCAUGUGGGAGUGGUCUAAUGACCAC [Fiskers NG1(ss) - 4] (Eterna round: R96, puzzle: Same State NG 1)”, the “apparent KD of MS2 coat protein” value was found to be 64.3 nM (input ligand: FMN 200 uM), 58.1 nM under setting [1] and 64 nM (input ligand: none).
